One assay has as its target T1, GABARAPL2 (Homo sapiens, UniProt P60520).
T1 construct: modified ubiquitin tag (Ub19) with TEV site (N, cleaved yes); made in house; host or cells: E. coli T7 Express
Put plainly: NMR titration with GABARAPL2. In kind it is binding. The following applies: NMR titration of 15N-labeled R1-R2-R3^325–404 with GABARAPL2, 25 °C.

Another assay concerns Ub. Description: Interaction of ubiquitin with UBA5 C-terminal region. In kind it is binding. Here is the method:
All ITC experiments were performed at 25 °C using a VP-ITC microcalorimeter (Malvern Panalytical Ltd., Malvern, UK). Peptides in concentration of ~400 µM were titrated into 20–25 µM solutions of corresponding binding partner at a stirring speed of 307 rpm. The raw data were corrected on the dilution heat of peptides obtained in independent experiment (titration of the peptide in syringe into the ITC/NMR buffer in the measuring cell). Pre-titration delay was set to 180 s, interval between titration steps was experimentally adjusted to avoid kinetic contribution to the observed heat effects and set to 200 s. A single ITC profile was collected for each type of interaction. The ITC data were analyzed based on a “one-site” binding model with MicroCal ITC software implemented in Origin 7.0.

T1 sequence (P60520 3-116): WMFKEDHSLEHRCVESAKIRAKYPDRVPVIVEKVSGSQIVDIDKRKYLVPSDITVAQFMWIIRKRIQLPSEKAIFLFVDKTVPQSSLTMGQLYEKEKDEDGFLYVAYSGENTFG

As to “R1-R2-R3^325–404: UBA5 C-terminal part, residues 325–404 (recombinant, E. coli)”, in the assay with GABARAPL2, the “interaction with GABARAPL2 (in words)” value is “GABARAPL2 binds first to the LIR/UFIM region, and after saturation of this binding site, GABARAPL2 interacts with additional sites within the UBA5 C-terminus”. For the same substance, the interaction with ubiquitin result in the assay on Ub is given as “no interaction”.

Source of the values: publication PMC8304084, “A Concerted Action of UBA5 C-Terminal Unstructured Regions Is Important for Transfer of Activated UFM1 to UFC1” (International Journal of Molecular Sciences, 2021).
